Test results published in patent US20100297124A1 (published 2010).

Legend:
[1] = biological target: T1, neuropilin 1 (NRP1) on human umbilical vein endothelial cells (HUVEC) (human, UniProt O14786 22-923); assay: flow cytometry, biotinylated VEGF165 (100 ng/ml) on HUVEC, avidin-FITC detection
T1 construct: whole, on cells; also called cell-surface NRP1
Description: (§1) The results shown in FIGS. 8-12 indicate that oligo(G) can promote the internalization of NRP1 by bridging NRP1 to the scavenger SREC-I receptor on endothelial cells. This should disrupt the binding of the NRP1 ligands Sema3A and VEGF165 to endothelial cells due to receptor internalization. To verify this hypothesis, HUVEC were incubated at 37° C. for 1 hour with or without phosphorothioate G18 (sG18) (4 or 16 μg/ml). Subsequently, the cells were washed and binding of Sema3A/Fc and biotin-labeled VEGF165 tested after incubation at 4° C. for 1 hour. Bound Sema3A/Fc was detected by flow cytometry after staining with FITC-conjugated goat anti-human IgG-Fc; bound VEGF165 was detected by flow cytometry after staining with avidin-FITC.

[2] = biological target: T1, neuropilin 1 (NRP1) on human umbilical …; assay: flow cytometry, Sema3A/Fc (2 µg/ml) on HUVEC, anti-human IgG Fc detection
Description: as §1

T1 sequence (O14786 22-923): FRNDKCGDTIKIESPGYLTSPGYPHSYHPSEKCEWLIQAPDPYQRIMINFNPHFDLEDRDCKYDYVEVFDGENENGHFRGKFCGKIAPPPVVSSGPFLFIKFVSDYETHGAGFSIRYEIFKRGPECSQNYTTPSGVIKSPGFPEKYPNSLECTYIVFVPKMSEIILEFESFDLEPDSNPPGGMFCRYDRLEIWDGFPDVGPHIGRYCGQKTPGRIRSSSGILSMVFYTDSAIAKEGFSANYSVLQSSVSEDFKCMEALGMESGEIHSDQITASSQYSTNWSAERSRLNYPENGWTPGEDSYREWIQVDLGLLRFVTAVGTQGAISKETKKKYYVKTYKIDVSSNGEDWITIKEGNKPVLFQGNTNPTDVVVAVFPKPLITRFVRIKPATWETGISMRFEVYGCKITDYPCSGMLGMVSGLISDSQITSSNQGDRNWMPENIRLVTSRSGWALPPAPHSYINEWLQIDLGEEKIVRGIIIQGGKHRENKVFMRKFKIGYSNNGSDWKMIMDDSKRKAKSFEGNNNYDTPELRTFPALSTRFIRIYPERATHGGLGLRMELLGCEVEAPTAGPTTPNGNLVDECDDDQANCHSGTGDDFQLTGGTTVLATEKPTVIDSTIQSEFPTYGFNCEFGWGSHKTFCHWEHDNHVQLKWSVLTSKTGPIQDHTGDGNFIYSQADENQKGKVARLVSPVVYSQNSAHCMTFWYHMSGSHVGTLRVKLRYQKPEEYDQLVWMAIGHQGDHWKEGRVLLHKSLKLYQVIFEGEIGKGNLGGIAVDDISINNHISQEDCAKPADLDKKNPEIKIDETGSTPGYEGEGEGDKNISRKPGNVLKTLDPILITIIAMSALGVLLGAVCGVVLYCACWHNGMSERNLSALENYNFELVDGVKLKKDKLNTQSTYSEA

| binding result [1] | binding result [2] | Binder |
| --- | --- | --- |
| binds |  | Recombinant human VEGF165 (biotinylated) (ligand, UniProt P15692-4 27-191, looked up, biotinylated (sites not given), Commercial reagent (R&D Systems); also called biotin-VEGF165; biotin-labeled VEGF165) APMAEGGGQNHHEVVKFMDVYQRSYCHPIETLVDIFQEYPDEIEYIFKPSCVPLMRCGGCCNDEGLECVPTEESNITMQIMRIKPHQGQHIGEMSFLQHNKCECRPKKDRARQENPCGPCSERRKHLFVQDPQTCKCSCKNTDSRCKARQLELNERTCRCDKPRR |
|  | binds | human Sema3A/Fc (Fc fusion, UniProt Q14563 26-771, looked up, Commercial reagent (R&D Systems); not shown: Fc portion) KNNVPRLKLSYKEMLESNNVITFNGLANSSSYHTFLLDEERSRLYVGAKDHIFSFDLVNIKDFQKIVWPVSYTRRDECKWAGKDILKECANFIKVLKAYNQTHLYACGTGAFHPICTYIEIGHHPEDNIFKLENSHFENGRGKSPYDPKLLTASLLIDGELYSGTAADFMGRDFAIFRTLGHHHPIRTEQHDSRWLNDPKFISAHLISESDNPEDDKVYFFFRENAIDGEHSGKATHARIGQICKNDFGGHRSLVNKWTTFLKARLICSVPGPNGIDTHFDELQDVFLMNFKDPKNPVVYGVFTTSSNIFKGSAVCMYSMSDVRRVFLGPYAHRDGPNYQWVPYQGRVPYPRPGTCPSKTFGGFDSTKDLPDDVITFARSHPAMYNPVFPMNNRPIVIKTDVNYQFTQIVVDRVDAEDGQYDVMFIGTDVGTVLKVVSIPKETWYDLEEVLLEEMTVFREPTAISAMELSTKQQQLYIGSTAGVAQLPLHRCDIYGKACAECCLARDPYCAWDGSACSRYFPTAKRRTRRQDIRNGDPLTHCSDLHHDNHHGHSPEERIIYGVENSSTFLECSPKSQRALVYWQFQRRNEERKEEIRVDDHIIRTDQGLLLRSLQQKDSGNYLCHAVEHGFIQTLLKVTLEVIDTEHLEELLHKDDDGDGSKTKEMSNSMTPSQKVWYRDFMQLINHPNLNTMDEFCEQVWKRDRKQRRQRPGHTPGNSNKWKHLQENKKGRNRRTHEFERAPRSV |
